Source: paper PMC7730623

Columns and labels:
[1] = target: human ameloblastin full-length isoform I (AMBN ISO I) (human) (UniProt Q9NP70); experiment: AUC; sedimentation velocity, 23 uM protein, 20 °C, 10 mM Tris-HCl pH 7.4, 100 mM NaCl, no Ca2+; c(s) with bimodal f/f0; average size of heterogeneous oligomers
[2] = target: human ameloblastin full-length isoform I (AMBN ISO I) (human) (UniProt Q9NP70); experiment: AUC; sedimentation velocity, 23 uM protein, 20 °C, 10 mM Tris-HCl pH 7.4, 100 mM NaCl, with 10 mM CaCl2; c(s) with bimodal f/f0; average size of heterogeneous oligomers
[3] = target: human ameloblastin full-length isoform II (AMBN ISO II) (human) (UniProt Q9NP70); experiment: AUC; sedimentation velocity, 23 uM protein, 20 °C, 10 mM Tris-HCl pH 7.4, 100 mM NaCl, no Ca2+; c(s) with bimodal f/f0; average size of heterogeneous oligomers
[4] = target: human ameloblastin full-length isoform II (AMBN ISO II) (human) (UniProt Q9NP70); experiment: AUC; sedimentation velocity, 23 uM protein, 20 °C, 10 mM Tris-HCl pH 7.4, 100 mM NaCl, with 10 mM CaCl2; c(s) with bimodal f/f0; average size of heterogeneous oligomers

stoichiometry N [1]	stoichiometry N [2]	stoichiometry N [3]	stoichiometry N [4]	Substance
28 monomers	33 monomers			human ameloblastin full-length isoform I (AMBN ISO I) (from UniProt Q9NP70-1 27-447) (natural protein)
		19 monomers	20 monomers	human ameloblastin full-length isoform II (AMBN ISO II) (from UniProt Q9NP70-2 27-432) (natural protein)
